Laboratory results: the supplement of paper PMC5998384

Key:
[1] = system: HeLa Kyoto; assay: solubility change mitosis vs G1/S (difference of NP-40 vs SDS log2 ratios) (log2 ratio difference); higher = more soluble in mitosis
[2] = system: HeLa Kyoto; assay: solubility in G1/S (NP-40 vs SDS abundance) (log2 ratio); higher = more soluble; details: cell cycle stage: G1/S
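Throughout, for solubility change mitosis vs G1/S (difference of NP-40 vs SDS log2 ratios): synchronized HeLa Kyoto cells (double thymidine block for G1/S, nocodazole release for mitosis), protein amounts in NP-40 versus SDS lysates quantified by mass spectrometry, three biological replicates.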
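Throughout, for solubility in G1/S (NP-40 vs SDS abundance): HeLa Kyoto cells arrested at G1/S by double thymidine block, proteins quantified by TMT10plex mass spectrometry in mild NP-40 versus SDS extracts, three biological replicates.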

Chain of MBD4 (chain, as listed by the source): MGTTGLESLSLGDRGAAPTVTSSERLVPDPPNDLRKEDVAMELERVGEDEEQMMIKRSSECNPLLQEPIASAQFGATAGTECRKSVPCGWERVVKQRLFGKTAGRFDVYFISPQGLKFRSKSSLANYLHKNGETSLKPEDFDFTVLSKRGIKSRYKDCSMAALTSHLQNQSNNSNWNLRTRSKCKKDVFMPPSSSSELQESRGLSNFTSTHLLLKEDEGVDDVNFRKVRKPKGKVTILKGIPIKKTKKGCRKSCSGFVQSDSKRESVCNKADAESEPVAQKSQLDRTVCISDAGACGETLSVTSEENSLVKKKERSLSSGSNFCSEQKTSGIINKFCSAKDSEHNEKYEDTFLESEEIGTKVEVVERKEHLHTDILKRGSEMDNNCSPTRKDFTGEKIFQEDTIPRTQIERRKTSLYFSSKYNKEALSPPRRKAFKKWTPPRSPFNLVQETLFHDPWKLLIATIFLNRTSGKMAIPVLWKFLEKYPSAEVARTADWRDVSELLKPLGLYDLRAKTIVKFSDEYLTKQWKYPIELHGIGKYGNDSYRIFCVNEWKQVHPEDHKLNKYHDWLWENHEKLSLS

Row | Substance | solubility change mitosis (log2) [1] | solubility in G1/S (log2) [2]
1 | MASESETLNPSARIMTFYPTMEEFRNFSRYIAYIESQGAHRAGLAKVVPPKEWKPRASYDDIDDLVIPAPIQQLVTGQSGLFTQYNIQKKAMTVREFRKIANSDKYCTPRYSEFEELERKYWKNLTFNPPIYGADVNGTLYEKHVDEWNIGRLRTILDLVEKESGITIEGVNTPYLYFGMWKTSFAWHTEDMDLYSINYLHFGEPKSWYSVPPEHGKRLERLAKGFFPGSAQSCEAFLRHKMTLISPLMLKKYGIPFDKVTQEAGEFMITFPYGYHAGFNHGFNCAESTNFATRRWIEYGKQAVLCSCRKDMVKISMDVFVRKFQPERYKLWKAGKDNTVIDHTLPTPEAAEFLKESELPPRAGNEEECPEEDMEGVEDGEEGDLKTSLAKHRIGTKRHRVCLEIPQEVSQSELFPKEDLSSEQYEMTECPAALAPVRPTHSSVRQVEDGLTFPDYSDSTEVKFEELKNVKLEEEDEEEEQAAAALDLSVNPASVGGRLVFSGSKKKSSSSLGSGSSRDSISSDSETSEPLSCRAQGQTGVLTVHSYAKGDGRVTVGEPCTRKKGSAARSFSERELAEVADEYMFSLEENKKSKGRRQPLSKLPRHHPLVLQECVSDDETSEQLTPEEEAEETEAWAKPLSQLWQNRPPNFEAEKEFNETMAQQAPHCAVCMIFQTYHQVEFGGFNQNCGNASDLAPQKQRTKPLIPEMCFTSTGCSTDINLSTPYLEEDGTSILVSCKKCSVRVHASCYGVPPAKASEDWMCSRCSANALEEDCCLCSLRGGALQRANDDRWVHVSCAVAILEARFVNIAERSPVDVSKIPLPRFKLKCIFCKKRRKRTAGCCVQCSHGRCPTAFHVSCAQAAGVMMQPDDWPFVVFITCFRHKIPNLERAKGALQSITAGQKVISKHKNGRFYQCEVVRLTTETFYEVNFDDGSFSDNLYPEDIVSQDCLQFGPPAEGEVVQVRWTDGQVYGAKFVASHPIQMYQVEFEDGSQLVVKRDDVYTLDEELPKRVKSRLSVASDMRFNEIFTEKEVKQEKKRQRVINSRYREDYIEPALYRAIME [KDM4A] | 0.0206 | -0.143
2 | MASGDFCSPGEGMEILQQVCSKQLPPCNLSKEDLLQNPYFSKLLLNLSQHVDESGLSLTLAKEQAQAWKEVRLHKTTWLRSEILHRVIQELLVDYYVKIQDTNVTSEDKKFHETLEQRLLVTELMRLLGPSQEREIPPLLGLEKADLLELMPLSEDFVWMRARLQQEVEEQLKKKCFTLLCYYDPNSDADSETVKAAKVWKLAEVLVGEQQQCQDAKSQQKEQMLLLEKKSAAYSQVLLRCLTLLQRLLQEHRLKTQSELDRINAQYLEVKCGAMILKLRMEELKILSDTYTVEKVEVHRLIRDRLEGAIHLQEQDMENSRQVLNSYEVLGEEFDRLVKEYTVLKQATENKRWALQEFSKVYR [HAUS4] | -0.0485 | 0.377
3 | MASKKVCIVGSGNWGSAIAKIVGGNAAQLAQFDPRVTMWVFEEDIGGKKLTEIINTQHENVKYLPGHKLPPNVVAVPDVVQAAEDADILIFVVPHQFIGKICDQLKGHLKANATGISLIKGVDEGPNGLKLISEVIGERLGIPMSVLMGANIASEVADEKFCETTIGCKDPAQGQLLKELMQTPNFRITVVQEVDTVEICGALKNVVAVGAGFCDGLGFGDNTKAAVIRLGLMEMIAFAKLFCSGPVSSATFLESCGVADLITTCYGGRNRKVAEAFARTGKSIEQLEKELLNGQKLQGPETARELYSILQHKGLVDKFPLFMAVYKVCYEGQPVGEFIHCLQNHPEHM [GPD1] | 0.00396 | 0.278
4 | MASSGAGDPLDSKRGEAPFAQRIDPTREKLTPEQLHSMRQAELAQWQKVLPRRRTRNIVTGLGIGALVLAIYGYTFYSISQERFLDELEDEAKAARARALARASGS [COA3] | 0.902 | -0.65
5 | MASVLSYESLVHAVAGAVGSVTAMTVFFPLDTARLRLQVDEKRKSKTTHMVLLEIIKEEGLLAPYRGWFPVISSLCCSNFVYFYTFNSLKALWVKGQHSTTGKDLVVGFVAGVVNVLLTTPLWVVNTRLKLQGAKFRNEDIVPTNYKGIIDAFHQIIRDEGISALWNGTFPSLLLVFNPAIQFMFYEGLKRQLLKKRMKLSSLDVFIIGAVAKAIATTVTYPLQTVQSILRFGRHRLNPENRTLGSLRNILYLLHQRVRRFGIMGLYKGLEAKLLQTVLTAALMFLVYEKLTAATFTVMGLKRAHQH [SLC25A17] | -0.0966 | -0.148
6 | MASVRIREAKEGDCGDILRLIRELAEFEKLSDQVKISEEALRADGFGDNPFYHCLVAEILPAPGKLLGPCVVGYGIYYFIYSTWKGRTIYLEDIYVMPEYRGQGIGSKIIKKVAEVALDKGCSQFRLAVLDWNQRAMDLYKALGAQDLTEAEGWHFFCFQGEATRKLAGK [SAT2] | -0.259 | 0.139
7 | MASVSSATFSGHGARSLLQFLRLVGQLKRVPRTGWVYRNVQRPESVSDHMYRMAVMAMVIKDDRLNKDRCVRLALVHDMAECIVGDIAPADNIPKEEKHRREEEAMKQITQLLPEDLRKELYELWEEYETQSSAEAKFVKQLDQCEMILQASEYEDLEHKPGRLQDFYDSTAGKFNHPEIVQLVSELEAERSTNIAAAASEPHS [HDDC2] | 0.118 | 0.452
8 | MATSLDFKTYVDQACRAAEEFVNIYYETMDKRRRALTRLYLDKATLIWNGNAVSGLDALNNFFDTLPSSEFQVNMLDCQPVHEQATQSQTTVLVVTSGTVKFDGNKQHFFNQNFLLTAQSTPNNTVWKIASDCFRFQDWSSS [NXT2] | 0.401 | -0.596
9 | MAVTLSLLLGGRVCAAVTRCGFATRGVAGPGPIGREPDPDSDWEPEERELQEVESTLKRQKQAIRFQKIRRQMEAPGAPPRTLTWEAMEQIRYLHEEFPESWSVPRLAEGFDVSTDVIRRVLKSKFLPTLEQKLKQDQKVLKKAGLAHSLQHLRGSGNTSKLLPAGHSVSGSLLMPGHEASSKDPNHSTALKVIESDTHRTNTPRRRKGRNKEIQDLEESFVPVAAPLGHPRELQKYSSDSESPRGTGSGALPSGQKLEELKAEEPDNFSSKVVQRGREFFDSNGNFLYRI [NGRN] | 0.276 | 0.784
10 | MBD4 | 0.427 | -0.669
11 | MCTKMEQPFYHDDSYTATGYGRAPGGLSLHDYKLLKPSLAVNLADPYRSLKAPGARGPGPEGGGGGSYFSGQGSDTGASLKLASSELERLIVPNSNGVITTTPTPPGQYFYPRGGGSGGGAGGAGGGVTEEQEGFADGFVKALDDLHKMNHVTPPNVSLGATGGPPAGPGGVYAGPEPPPVYTNLSSYSPASASSGGAGAAVGTGSSYPTTTISYLPHAPPFAGGHPAQLGLGRGASTFKEEPQTVPEARSRDATPPVSPINMEDQERIKVERKRLRNRLAATKCRKRKLERIARLEDKVKTLKAENAGLSSTAGLLREQVAQLKQKVMTHVSNGCQLLLGVKGHAF [JUNB] | 0.346 | 0.0721
12 | MDEADRRLLRRCRLRLVEELQVDQLWDALLSRELFRPHMIEDIQRAGSGSRRDQARQLIIDLETRGSQALPLFISCLEDTGQDMLASFLRTNRQAAKLSKPTLENLTPVVLRPEIRKPEVLRPETPRPVDIGSGGFGDVGALESLRGNADLAYILSMEPCGHCLIINNVNFCRESGLRTRTGSNIDCEKLRRRFSSLHFMVEVKGDLTAKKMVLALLELAQQDHGALDCCVVVILSHGCQASHLQFPGAVYGTDGCPVSVEKIVNIFNGTSCPSLGGKPKLFFIQACGGEQKDHGFEVASTSPEDESPGSNPEPDATPFQEGLRTFDQLDAISSLPTPSDIFVSYSTFPGFVSWRDPKSGSWYVETLDDIFEQWAHSEDLQSLLLRVANAVSVKGIYKQMPGCFNFLRKKLFFKTS [CASP9] | -0.0656 | 0.32
13 | MDEDGGGEGGGVPEDLSLEEREELLDIRRRKKELIDDIERLKYEIAEVMTEIDNLTSVEESKTTQRNKQIAMGRKKFNMDPKKGIQFLIENDLLQSSPEDVAQFLYKGEGLNKTVIGDYLGERDEFNIKVLQAFVELHEFADLNLVQALRQFLWSFRLPGEAQKIDRMMEAFASRYCLCNPGVFQSTDTCYVLSFAIIMLNTSLHNHNVRDKPTAERFIAMNRGINEGGDLPEELLRNLYESIKNEPFKIPEDDGNDLTHTFFNPDREGWLLKLGGGRVKTWKRRWFILTDNCLYYFEYTTDKEPRGIIPLENLSIREVEDPRKPNCFELYNPSHKGQVIKACKTEADGRVVEGNHVVYRISAPSPEEKEEWMKSIKASISRDPFYDMLATRKRRIANKK [CYTH3] | -0.11 | 0.26
14 | MDEQEALNSIMNDLVALQMNRRHRMPGYETMKNKDTGHSNRQSDVRIKFEHNGERRIIAFSRPVKYEDVEHKVTTVFGQPLDLHYMNNELSILLKNQDDLDKAIDILDRSSSMKSLRILLLSQDRNHNSSSPHSGVSRQVRIKASQSAGDINTIYQPPEPRSRHLSVSSQNPGRSSPPPGYVPERQQHIARQGSYTSINSEGEFIPETSEQCMLDPLSSAENSLSGSCQSLDRSADSPSFRKSRMSRAQSFPDNRQEYSDRETQLYDKGVKGGTYPRRYHVSVHHKDYSDGRRTFPRIRRHQGNLFTLVPSSRSLSTNGENMGLAVQYLDPRGRLRSADSENALSVQERNVPTKSPSAPINWRRGKLLGQGAFGRVYLCYDVDTGRELASKQVQFDPDSPETSKEVSALECEIQLLKNLQHERIVQYYGCLRDRAEKTLTIFMEYMPGGSVKDQLKAYGALTESVTRKYTRQILEGMSYLHSNMIVHRDIKGANILRDSAGNVKLGDFGASKRLQTICMSGTGMRSVTGTPYWMSPEVISGEGYGRKADVWSLGCTVVEMLTEKPPWAEYEAMAAIFKIATQPTNPQLPSHISEHGRDFLRRIFVEARQRPSAEELLTHHFAQLMY [MAP3K3] | -0.169 | 0.569
15 | MDFREILMIASKGQGVNNVPKRYSLAVGPPKKDPKVKGVQSAAVQAFLKRKEEELRRKALEEKRRKEELVKKRIELKHDKKARAMAKRTKDNFHGYNGIPIEEKSKKRQATESHTSQGTDREYEMEEENEFLEYNHAESEQEYEEEQEPPKVESKPKVPLKSAPPPMNFTDLLRLAEKKQFEPVEIKVVKKSEERPMTAEELREREFLERKHRRKKLETDGKLPPTVSKKAPSQKESVGTKLSKGSGDRHPSSKGMPLPHAEKKSRPSMANEKHLALSSSKSMPGERIKAGSGNSSQPSLREGHDKPVFNGAGKPHSSTSSPSVPKTSASRTQKSAVEHKAKKSLSHPSHSRPGPMVTPHNKAKSPGVRQPGSSSSSAPGQPSTGVARPTVSSGPVPRRQNGSSSSGPERSISGSKKPTNDSNPSRRTVSGTCGPGQPASSSGGPGRPISGSVSSARPLGSSRGPGRPVSSPHELRRPVSGLGPPGRSVSGPGRSISGSIPAGRTVSNSVPGRPVSSLGPGQTVSSSGPTIKPKCTVVSETISSKNIISRSSNGQMNGMKPPLSGYRAAQGPQRLPFPTGYKRQREYEEEDDDDDEYDSEMEDFIEDEGEPQEEISKHIREIFGYDRKKYKDESDYALRYMESSWKEQQKEEAKSLRLGMQEDLEEMRREEEEMQRRRAKKLKRR [SPTY2D1] | 0.873 | -1.47
